B2: purified αB-crystallin wild type (from E. coli) (natural protein, human, UniProt P02511 1-175, looked up)
chain: MDIAIHHPWIRRPFFPFHSPSRLFDQFFGEHLLESDLFPTSTSLSPFYLRPPSFLRAPSWFDTGLSEMRLEKDRFSVNLDVKHFSPEELKVKVLGDVIEVHGKHEERQDEHGFISREFHRKYRIPADVDPLTITSSLSSDGVLTVNGPRKQVSGPERTIPITREEKPAVTAAPKK
notes: αB-crystallin, human, wild type; probably made as a GST fusion from pGEX-6P-1 with the GST removed (it is pulled down by GST-BAG3 on GSH beads); also called WT; source: E. coli, purified

Details in all cases: both partners purified
The target in assay [1] is B2. Briefly: pull-down; competition: purified GST-BAG3 incubated with purified αB-crystallin in the presence or absence of peptides aa 87–101 or 200–213 of BAG3; precipitated with GSH beads; immunoblot with anti-αB-crystallin antibody.
Assay [2] concerns the target T1, GST-BAG3 (human, UniProt O95817 1-575).
T1 construct: BAG3, human, cDNA subcloned into pGEX-6P-1; also called GST-fused BAG3; GST protein fused to BAG3; source: E. coli BL21, purified (glutathione-Sepharose beads)
The description is as above.

Assay [3] deals with T2, purified BAG3 (from E. coli) (human, UniProt O95817 1-575).
T2 construct: BAG3, human; probably made as GST-BAG3 from pGEX-6P-1 with the GST removed (it is pulled down by GST-αB-crystallin on glutathione beads); source: E. coli BL21, purified
Briefly: pull-down; purified GST-fused αB-crystallin (WT or R120G) mixed with purified BAG3, pulled down with glutathione sepharose beads; immunoblot with anti-BAG3 antibody.

In assay [4] the target is T1, GST-BAG3. The experiment in a line: pull-down; purified GST-BAG3 incubated with purified αB-crystallin in immunoprecipitation buffer, precipitated with glutathione-Sepharose beads; immunoblot with anti-αB-crystallin antibody. Background: In western blotting, separated proteins are transferred to a membrane and probed.

T1 sequence (O95817 whole entry, the tested form may be a part): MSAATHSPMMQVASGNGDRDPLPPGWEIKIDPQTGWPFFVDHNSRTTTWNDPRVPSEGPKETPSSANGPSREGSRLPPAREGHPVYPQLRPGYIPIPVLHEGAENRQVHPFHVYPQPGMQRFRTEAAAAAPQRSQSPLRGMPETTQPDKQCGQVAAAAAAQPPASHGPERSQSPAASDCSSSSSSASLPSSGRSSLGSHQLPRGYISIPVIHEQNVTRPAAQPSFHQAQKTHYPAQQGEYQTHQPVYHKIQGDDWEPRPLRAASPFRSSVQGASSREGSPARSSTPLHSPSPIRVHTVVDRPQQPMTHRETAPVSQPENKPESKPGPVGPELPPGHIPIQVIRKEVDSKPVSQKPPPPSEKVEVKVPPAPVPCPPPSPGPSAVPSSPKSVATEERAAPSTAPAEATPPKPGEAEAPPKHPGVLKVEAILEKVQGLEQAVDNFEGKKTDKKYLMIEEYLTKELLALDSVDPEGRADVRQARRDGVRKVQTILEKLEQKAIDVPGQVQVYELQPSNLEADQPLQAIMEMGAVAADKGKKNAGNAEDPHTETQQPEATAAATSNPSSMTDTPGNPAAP
T2 sequence (O95817 whole entry): as the sequence (O95817 whole entry, the tested form may be a part) above

B1: peptide corresponding to aa 200–213 of BAG3 (peptide, UniProt O95817 200-213, looked up)
peptide: QLPRGYISIPVIHE
notes: BAG3, human, amino acids 200–213; source: peptide, 'generated'
For B1, in assay [1], the binding result is reported as “binds”.

As to B2, the binding result in assay [2] is reported as “binds”.

B3: GST-αB-crystallin wild type (natural protein, human, UniProt P02511 1-175, looked up)
chain: MDIAIHHPWIRRPFFPFHSPSRLFDQFFGEHLLESDLFPTSTSLSPFYLRPPSFLRAPSWFDTGLSEMRLEKDRFSVNLDVKHFSPEELKVKVLGDVIEVHGKHEERQDEHGFISREFHRKYRIPADVDPLTITSSLSSDGVLTVNGPRKQVSGPERTIPITREEKPAVTAAPKK
notes: αB-crystallin, human, wild type, cDNA subcloned into pGEX-6P-1; also called GST-fused αB-crystallin wild type (WT); GST fusion αB-crystallin; source: E. coli BL21, purified (glutathione-Sepharose beads)
Regarding B3, in assay [3], the binding result was “binds”.

B4: GST-αB-crystallin R120G (natural protein, human, UniProt P02511 1-175, looked up)
chain: MDIAIHHPWIRRPFFPFHSPSRLFDQFFGEHLLESDLFPTSTSLSPFYLRPPSFLRAPSWFDTGLSEMRLEKDRFSVNLDVKHFSPEELKVKVLGDVIEVHGKHEERQDEHGFISREFHGKYRIPADVDPLTITSSLSSDGVLTVNGPRKQVSGPERTIPITREEKPAVTAAPKK
notes: αB-crystallin, human, mutant R120G found in myofibrillar myopathy patients, cDNA subcloned into pGEX-6P-1; also called GST R120GαB-crystallin; GST-fused αB-crystallin mutant (R120G); source: E. coli BL21, purified (glutathione-Sepharose beads)
Regarding B4, the binding result in assay [3] was “binds”.

B5: purified αB-crystallin R120G (from E. coli) (natural protein, human, UniProt P02511 1-175, looked up)
chain: MDIAIHHPWIRRPFFPFHSPSRLFDQFFGEHLLESDLFPTSTSLSPFYLRPPSFLRAPSWFDTGLSEMRLEKDRFSVNLDVKHFSPEELKVKVLGDVIEVHGKHEERQDEHGFISREFHGKYRIPADVDPLTITSSLSSDGVLTVNGPRKQVSGPERTIPITREEKPAVTAAPKK
notes: αB-crystallin, human, mutant R120G found in myofibrillar myopathy patients; probably made as a GST fusion from pGEX-6P-1 with the GST removed; also called R120G αB-crystallin; mutant (R120G); source: E. coli, purified
As for B5, the binding result in assay [4] is “binds”.

B6: peptide corresponding to aa 87–101 of BAG3 (peptide, UniProt O95817 87-101, looked up)
peptide: PQLRPGYIPIPVLHE
notes: BAG3, human, amino acids 87–101; source: peptide, 'generated'
On to B6, for which, in assay [1], the binding result is given as “binds”.

The values are drawn from PMC3057972, “BAG3 Directly Interacts with Mutated alphaB-Crystallin to Suppress Its Aggregation and Toxicity” (PLoS ONE, 2011).
